This is an account of results in US6905854B2, “Mutated penicillin expandase and process for preparing 7-ADCA using the same” (Synmax Biochemical Co., Ltd., priority 2002, dated 2005).

To fix the notation:
B1: YS49: mutated penicillin expandase (DAOCS) with substitution L277K (protein, UniProt P18548 1-311, looked up, variant L277K)
Deacetoxycephalosporin C …: MDTTVPTFSLAELQQGLHQDEFRRCLRDKGLFYLTDCGLTDTELKSAKDLVIDFFEHGSEAEKRAVTSPVPTMRRGFTGLESESTAQITNTGSYSDYSMCYSMGTADNLFPSGDFERIWTQYFDRQYTASRAVAREVLRATGTEPDGGVEAFLDCEPLLRFRYFPQVPEHRSAEEQPLRMAPHYDLSMVTLIQQTPCANGFVSLQAEVGGAFTDLPYRPDAVLVFCGAIATLVTGGQVKAPRHHVAAPRRDQIAGSSRTSSVFFLRPNADFTFSVPKARECGFDVSLDGETATFQDWIGGNYVNIRRTSKA
B2: YS11: mutated penicillin expandase (DAOCS) with substitution I305M (protein, UniProt P18548 1-311, looked up, variant I305M)
Deacetoxycephalosporin C …: B1 Deacetoxycephalosporin C … with K277L, I305M
B3: YH2: mutated penicillin expandase (DAOCS) with substitution H244R (protein, UniProt P18548 1-311, looked up, variant H244R)
Deacetoxycephalosporin C …: B1 Deacetoxycephalosporin C … with H244R, K277L
B4: YS69: mutated penicillin expandase (DAOCS) with substitution M188I (protein, UniProt P18548 1-311, looked up, variant M188I)
Deacetoxycephalosporin C …: B1 Deacetoxycephalosporin C … with M188I, K277L
B5: SC59: DNA-shuffled combined DAOCS mutant with C155Y, Y184H, V275I and C281Y (protein, UniProt P18548 1-311, looked up, variant C155Y Y184H V275I C281Y)
Deacetoxycephalosporin C …: B1 Deacetoxycephalosporin C … with C155Y, Y184H, V275I, K277L, C281Y
B6: YS8: mutated penicillin expandase (DAOCS) with substitution I305L (protein, UniProt P18548 1-311, looked up, variant I305L)
Deacetoxycephalosporin C …: B1 Deacetoxycephalosporin C … with K277L, I305L
B7: YS71: mutated penicillin expandase (DAOCS) with substitution A106T (protein, UniProt P18548 1-311, looked up, variant A106T)
Deacetoxycephalosporin C …: B1 Deacetoxycephalosporin C … with A106T, K277L
B8: YS72: mutated penicillin expandase (DAOCS) with substitution C155Y (protein, UniProt P18548 1-311, looked up, variant C155Y)
Deacetoxycephalosporin C …: B1 Deacetoxycephalosporin C … with C155Y, K277L
B9: YS67: mutated penicillin expandase (DAOCS) with substitutions V275I and I305M (protein, UniProt P18548 1-311, looked up, variant V275I I305M)
Deacetoxycephalosporin C …: B1 Deacetoxycephalosporin C … with V275I, K277L, I305M
B10: EC12: mutated penicillin expandase (DAOCS) with substitution L277Q (protein, UniProt P18548 1-311, looked up, variant L277Q)
Deacetoxycephalosporin C …: B1 Deacetoxycephalosporin C … with K277Q
B11: YS16: wild-type expandase (DAOCS, cefE gene) from Streptomyces clavuligerus, parent strain (protein, UniProt P18548 1-311, looked up)
Deacetoxycephalosporin C …: B1 Deacetoxycephalosporin C … with K277L
B12: YS81: combined DAOCS mutant, mutated sites 275I, 281Y, 305M (protein, UniProt P18548 1-311, looked up, variant V275I C281Y I305M)
Deacetoxycephalosporin C …: B1 Deacetoxycephalosporin C … with V275I, K277L, C281Y, I305M
B13: SC39: combined DAOCS mutant, mutated sites 73T, 281Y (protein, UniProt P18548 1-311, looked up, variant M73T C281Y)
Deacetoxycephalosporin C …: B1 Deacetoxycephalosporin C … with M73T, K277L, C281Y
B14: YS74: combined DAOCS mutant, mutated sites 275I, 304K, 305L (protein, UniProt P18548 1-311, looked up, variant V275I N304K I305L)
Deacetoxycephalosporin C …: B1 Deacetoxycephalosporin C … with V275I, K277L, N304K, I305L
B15: YS100: combined DAOCS mutant, mutated sites 79E, 275I, 305L (protein, UniProt P18548 1-311, looked up, variant G79E V275I I305L)
Deacetoxycephalosporin C …: B1 Deacetoxycephalosporin C … with G79E, V275I, K277L, I305L
B16: YS88: combined DAOCS mutant, mutated sites 79E, 275I, 281Y (protein, UniProt P18548 1-311, looked up, variant G79E V275I C281Y)
Deacetoxycephalosporin C …: B1 Deacetoxycephalosporin C … with G79E, V275I, K277L, C281Y

Substitutions are numbered along the chain they refer to. Names and notes keep the numbering of the source.

A short description of one data set: Kinetic assay of purified DAOCS with penicillin N as main substrate. In kind it is biochemical. The settings on record: for penicillin N; 0.5 μg purified DAOCS, 30° C., 10 minutes. How it is done:
(§1) The cell extract (2 ml) of a candidate mutant was applied onto a HiTrap Q column (5 ml) pre-equilibrated with buffer B (50 mM Mops/pH 7.5, 1 mM DTT, 0.4 mM pefabloc SC, and 0.5 μg/ml leupeptin). Then, the column was washed with 20 ml of buffer B, followed by a further wash with 25 ml of buffer B containing 120 mM NaCl, and DAOCS was eluted off with 20 ml of buffer B containing 150 mM NaCl. The DAOCS containing fractions were pooled (10 ml), concentrated by UF 15 device (NMWL 5K; Millipore), and loaded onto a Hiload Superdex 75 (16/60) column pre-equilibrated with buffer B at a flow rate of 1 ml/min.
(§2) The standard penicillin G assay was followed for kinetic assay, but 20 μg of purified DAOCS was used and the concentration of α-ketoglutarate was reduced to 1 mM. Kinetic parameters were obtained from triplicate experiments by Hanes-Woolf Plot. For assays using penicillin N as a main substrate, a total volume of 240 μl reaction containing 50 mM Hepes/pH 7.5, 0.4 mM ascorbate, 0.1 mM FeSO4, 0.1 mM α-ketoglutarate, 0.1 mM penicillin N and 0.5 μg of purified DAOCS was incubated at 30° C. for 10 minutes, then the same volume of 10 mM EDTA/pH 7.5 was added, and the mixture was subjected to ultrafiltration with UF 0.5 device (NMWL 5000, Millipore). The filtrate was analyzed by HPLC using 25 mM potassium phosphate/pH 6.5 as a mobile phase. The retention time of DAOC and penicillin N was 12 minutes and 13.5 minutes, respectively The results of kinetic parameters are shown in Table 1, wherein the definition and calculation of the parameters are described in Lehninger et al. Principles of Biochemistry, 2nd Ed. Worth Publishers, New York (1993) which is incorporated herein for reference.
On to B1, for which the kcat came to 0.220 ± 0.042 S^−1.
Still for that read-out and setting: then B2, with 0.310 ± 0.004 S^−1.
Still for that read-out and setting: then B3, with 0.236 ± 0.005 S^−1.
The same measure, in the same setting: then B4, with 0.277 ± 0.004 S^−1.
Regarding B5, the kcat came out at 0.048 ± 0.001 S^−1.
On the same count and under the same terms, then B6, with 0.284 ± 0.030 S^−1; and B7, with 0.277 ± 0.014 S^−1; and B8, with 0.235 ± 0.008 S^−1.
Same read-out and setting: then B9, with 0.316 ± 0.032 S^−1.
On the same count and under the same terms, then B10, with 0.297 ± 0.020 S^−1; and B11, with 0.307 ± 0.038 S^−1.

The same data set, now with this note: for penicillin N; 0.5 μg purified DAOCS, 30° C., 10 minutes; triplicate, Hanes-Woolf Plot.
B1: the Michaelis constant (Km) worked out at 11 ± 5 µM.
Still for that read-out and setting: then B2, with 12 ± 1 µM; and B3, with 8 ± 1 µM.
On the same count and under the same terms, as for B4, the figure is 11 ± 1 µM; as for B5, 92 ± 0.5 µM; as for B6, 6 ± 2 µM.
B7: the Km was found to be 13 ± 2 µM.
On the same count and under the same terms, as for B8, the figure is 16 ± 0.5 µM.
Same read-out and setting: as for B9, the figure is 13 ± 5 µM; as for B10, 11 ± 1.5 µM.
The same measure, in the same setting: as for B11, the figure is 14 ± 6 µM.

The next data set can be described thus: Kinetic assay of purified DAOCS with penicillin G (standard penicillin G assay, HPLC of cephalosporin G). The data set is classed as biochemical. Particulars: for penicillin G; 20 μg purified DAOCS, 1 mM α-ketoglutarate, 30° C. How it is done: (§3) For penicillin G, 20 μl of cell extracts was added into a standard 200 μl assay reaction containing 50 mM Mops/pH 7.5, 4 mM ascorbate, 1 mM FeSO4, 4 mM α-ketoglutarate and 7 mM penicillin G, and incubated at 30° C. for 20 minutes. The reaction was stopped by addition of 200 μl of ethanol, followed by a centrifugation at 15,000×g for 5 minutes. The concentration of cephalosporin G in supernatant was analyzed by HPLC with 40 μl injection. The mobile phase was 25 mM potassium phosphate/pH 6.5 with 19% acetonitrile at a flow rate of 1 ml/min. The retention time for cephalosporin G was 8.5 minutes and 12.5 minutes for penicillin G with detection at 215 nm, and the product at 8.5 minutes in DAOCS reaction was confirmed by ESI-LC/MS (positive): [M+H]^+=333. […] The different combinations of the mutated amino acids mentioned above were also constructed by site-directed mutagenesis.
as §1, §2
In the case of B1, the kcat was determined as 0.0514 ± 0.0008 S^−1.
Consider B2, for which the kcat was found to be 0.1452 ± 0.0020 S^−1.
Same read-out and setting: then B3, with 0.0672 ± 0.0008 S^−1; and B4, with 0.0507 ± 0.0006 S^−1.
For B5, the kcat amounted to 0.1398 ± 0.0015 S^−1.
Same read-out and setting: as for B6, the figure is 0.0759 ± 0.0015 S^−1; as for B7, 0.0453 ± 0.0009 S^−1; as for B8, 0.0476 ± 0.0012 S^−1.
On the same count and under the same terms, then B9, with 0.1458 ± 0.0038 S^−1.
On the same count and under the same terms, then B10, with 0.1036 ± 0.0012 S^−1; and B11, with 0.0453 ± 0.0010 S^−1.

The data set is the same for the next values; noted with them: for penicillin G; 20 μg purified DAOCS, 1 mM α-ketoglutarate, 30° C.; triplicate, Hanes-Woolf Plot.
For B1, the Km is 720 ± 20 µM.
Still for that read-out and setting: as for B2, the figure is 750 ± 40 µM; as for B3, 2450 ± 40 µM; as for B4, 1960 ± 90 µM.
On the same count and under the same terms, then B5, with 190 ± 2 µM; and B6, with 660 ± 70 µM.
The same measure, in the same setting: then B7, with 1770 ± 150 µM; and B8, with 1760 ± 50 µM.
Take B9: the Km was found to be 250 ± 80 µM.
Turning to B10, the Km is 1020 ± 20 µM.
The same measure, in the same setting: then B11, with 2580 ± 220 µM.

A short description of another data set: Relative activity of purified combined mutants compared to wild type DAOCS. The data set is classed as biochemical. The settings on record: 1 mM penicillin G; activity of wild-type DAOCS as 100%. As for the experimental part: as §3, §2
The relative activities of the mutants are determined according to Chin H. S. et al supra with the activity of wild-type DAOCS as 100% and shown in Table 2. The assay was performed with 1 mM penicillin G, and the other conditions were the same as standard assay.
On to B12, for which the “Relative Activities” value came to 1290%.
Still for that read-out and setting: then B13, with 610%; and B14, with 300%; and B15, with 470%.
Still for that read-out and setting: as for B9, the figure is 500%.
Same read-out and setting: then B16, with 430%; and B11, with 100%.

The next data set in a line: DAOCS activity assay with cell extracts. In kind it is biochemical. The settings on record: 20 μl cell extract, 7 mM penicillin G, 30° C., 20 minutes. How it is done:
BL21(DE3) transformants were grown overnight in 5 ml of LB medium with 50 μg/ml kanamycin at 30° C. This culture was used to inoculate 100 ml of the same medium and grown at 30° C. for 1 hour. Then 0.1 mM IPTG was added to induce DAOCS indirectly at 30° C. for 4 hours. Cells were harvested, washed with buffer A (50 mM Mops/pH 7.5, 1 mM PMSF, 1 mM DTT, and 0.5 μg/ml leupeptin), lysed by sonication (VCX 750; Sonics & Materials, USA), and centrifuged at 15,000×g for 15 minutes. The supernatant was used as a cell extract.
as §3
Take B1: the “expandase activity on penicillin G compared to parent strain YS16” value is on record as “higher expandase activities on penicillin G than the parent strain YS16”.
The same measure, in the same setting: then B2, with “higher expandase activities on penicillin G than the parent strain YS16”; and B6, with “higher expandase activities on penicillin G than the parent strain YS16”.

As usually defined, the Km is the substrate concentration at which the rate is half of its maximum.
